Data from the supplement of paper PMC5998384.

Assays:
HeLa Kyoto [1] = assay: melting temperature (median over replicates), in situ; higher = more thermally stable
HeLa Kyoto [2] = assay: solubility change mitosis vs G1/S (difference of NP-40 vs SDS log2 ratios) (log2 ratio difference); higher = more soluble in mitosis
HeLa Kyoto [3] = assay: solubility in G1/S (NP-40 vs SDS abundance) (log2 ratio); higher = more soluble; conditions: cell cycle stage: G1/S
HeLa Kyoto [4] = assay: thermal stability score vs G1/S (z-score of summed log2 fold changes over temperatures); higher = more thermally stable than in G1/S
[5] = cell cycle stage: early G1 (4.5 h after nocodazole release)
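Throughout, for melting temperature (median over replicates), in situ: HeLa Kyoto cells synchronized by double thymidine or nocodazole block, proteins quantified by TMT10plex mass spectrometry, three independent biological replicates.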
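Throughout, for solubility change mitosis vs G1/S (difference of NP-40 vs SDS log2 ratios): synchronized HeLa Kyoto cells (double thymidine block for G1/S, nocodazole release for mitosis), protein amounts in NP-40 versus SDS lysates quantified by mass spectrometry, three biological replicates.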
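Throughout, for solubility in G1/S (NP-40 vs SDS abundance): HeLa Kyoto cells arrested at G1/S by double thymidine block, proteins quantified by TMT10plex mass spectrometry in mild NP-40 versus SDS extracts, three biological replicates.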
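Throughout, for thermal stability score vs G1/S (z-score of summed log2 fold changes over temperatures): synchronized HeLa Kyoto cells, proteins quantified by TMT10plex mass spectrometry, three biological replicates, mitosis taken 0.5 h after nocodazole release, G1/S directly after double thymidine block.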

Sequence	melting temperature (HeLa Kyoto [1]; cell cycle stage: G1/S) [°C]	melting temperature (HeLa Kyoto [1]; cell cycle stage: mitosis) [°C]	solubility change mitosis (log2) (HeLa Kyoto [2])	solubility in G1/S (log2) (HeLa Kyoto [3])	thermal stability score (HeLa Kyoto [4]; [5])	thermal stability score (HeLa Kyoto [4]; cell cycle stage: mitosis)
MSFLQDPSFFTMGMWSIGAGALGAAALALLLANTDVFLSKPQKAALEYLEDIDLKTLEKEPRTFKAKELWEKNGAVIMAVRRPGCFLCREEAADLSSLKSMLDQLGVPLYAVVKEHIRTEVKDFQPYFKGEIFLDEKKKFYGPQRRKMMFMGFIRLGVWYNFFRAWNGGFSGNLEGEGFILGGVFVVGSGKQGILLEHREKEFGDKVNLLSVLEAAKMIKPQTLASEKK [FAM213A]	56.6	55.5	-0.0729	-0.0704	-0.538	-0.108
MSFSRALLWARLPAGRQAGHRAAICSALRPHFGPFPGVLGQVSVLATASSSASGGSKIPNTSLFVPLTVKPQGPSADGDVGAELTRPLDKNEVKKVLDKFYKRKEIQKLGADYGLDARLFHQAFISFRNYIMQSHSLDVDIHIVLNDICFGAAHADDLFPFFLRHAKQIFPVLDCKDDLRKISDLRIPPNWYPDARAMQRKIIFHSGPTNSGKTYHAIQKYFSAKSGVYCGPLKLLAHEIFEKSNAAGVPCDLVTGEERVTVQPNGKQASHVSCTVEMCSVTTPYEVAVIDEIQMIRDPARGWAWTRALLGLCAEEVHLCGEPAAIDLVMELMYTTGEEVEVRDYKRLTPISVLDHALESLDNLRPGDCIVCFSKNDIYSVSRQIEIRGLESAVIYGSLPPGTKLAQAKKFNDPNDPCKILVATDAIGMGLNLSIRRIIFYSLIKPSINEKGERELEPITTSQALQIAGRAGRFSSRFKEGEVTTMNHEDLSLLKEILKRPVDPIRAAGLHPTAEQIEMFAYHLPDATLSNLIDIFVDFSQVDGQYFVCNMDDFKFSAELIQHIPLSLRVRYVFCTAPINKKQPFVCSSLLQFARQYSRNEPLTFAWLRRYIKWPLLPPKNIKDLMDLEAVHDVLDLYLWLSYRFMDMFPDASLIRDLQKELDGIIQDGVHNITKLIKMSETHKLLNLEGFPSGSQSRLSGTLKSQARRTRGTKALGSKATEPPSPDAGELSLASRLVQQGLLTPDMLKQLEKEWMTQQTEHNKEKTESGTHPKGTRRKKKEPDSD [SUPV3L1]	51.4	51.5	-0.0848	-0.0284	0.374	0.138
MSGCDAREGDCCSRRCGAQDKEHPRYLIPELCKQFYHLGWVTGTGGGISLKHGDEIYIAPSGVQKERIQPEDMFVCDINEKDISGPSPSKKLKKSQCTPLFMNAYTMRGAGAVIHTHSKAAVMATLLFPGREFKITHQEMIKGIKKCTSGGYYRYDDMLVVPIIENTPEEKDLKDRMAHAMNEYPDSCAVLVRRHGVYVWGETWEKAKTMCECYDYLFDIAVSMKKVGLDPSQLPVGENGIV [APIP]	59.3	57.6	-0.078	0.253	-1.32	-2.26
MSGCRVFIGRLNPAAREKDVERFFKGYGRIRDIDLKRGFGFVEFEDPRDADDAVYELDGKELCSERVTIEHARARSRGGRGRGRYSDRFSSRRPRNDRRNAPPVRTENRLIVENLSSRVSWQDLKDFMRQAGEVTFADAHRPKLNEGVVEFASYGDLKNAIEKLSGKEINGRKIKLIEGSKRHSRSRSRSRSRTRSSSRSRSRSRSRSRKSYSRSRSRSRSRSRSKSRSVSRSPVPEKSQKRGSSSRSKSPASVDRQRSRSRSRSRSVDSGN [SRSF5]	51.3	51.5	0.302	-0.33	1.65	-4.18
MSGDGATEQAAEYVPEKVKKAEKKLEENPYDLDAWSILIREAQNQPIDKARKTYERLVAQFPSSGRFWKLYIEAEIKAKNYDKVEKLFQRCLMKVLHIDLWKCYLSYVRETKGKLPSYKEKMAQAYDFALDKIGMEIMSYQIWVDYINFLKGVEAVGSYAENQRITAVRRVYQRGCVNPMINIEQLWRDYNKYEEGINIHLAKKMIEDRSRDYMNARRVAKEYETVMKGLDRNAPSVPPQNTPQEAQQVDMWKKYIQWEKSNPLRTEDQTLITKRVMFAYEQCLLVLGHHPDIWYEAAQYLEQSSKLLAEKGDMNNAKLFSDEAANIYERAISTLLKKNMLLYFAYADYEESRMKYEKVHSIYNRLLAIEDIDPTLVYIQYMKFARRAEGIKSGRMIFKKAREDTRTRHHVYVTAALMEYYCSKDKSVAFKIFELGLKKYGDIPEYVLAYIDYLSHLNEDNNTRVLFERVLTSGSLPPEKSGEIWARFLAFESNIGDLASILKVEKRRFTAFKEEYEGKETALLVDRYKFMDLYPCSASELKALGYKDVSRAKLAAIIPDPVVAPSIVPVLKDEVDRKPEYPKPDTQQMIPFQPRHLAPPGLHPVPGGVFPVPPAAVVLMKLLPPPICFQGPFVQVDELMEIFRRCKIPNTVEEAVRIITGGAPELAVEGNGPVESNAVLTKAVKRPNEDSDEDEEKGAVVPPVHDIYRARQQKRIR [CSTF3]	52	51.9	-0.000668	-0.0695	0.26	-0.413
MSGDSSGRGPEGRGRGRDPHRDRTRSRSRSRSPLSPRSRRGSARERREAPERPSLEDTEPSDSGDEMMDPASLEAEADQGLCRQIRHQYRALINSVQQNREDILNAGDKLTEVLEEANTLFNEVSRAREAVLDAHFLVLASDLGKEKAKQLRSDLSSFDMLRYVETLLTHMGVNPLEAEELIRDEDSPDFEFIVYDSWKITGRTAENTFNKTHTFHFLLGSIYGECPVPKPRVDRPRKVPVIQEERAMPAQLRRMEESHQEATEKEVERILGLLQTYFREDPDTPMSFFDFVVDPHSFPRTVENIFHVSFIIRDGFARIRLDQDRLPVIEPVSINEENEGFEHNTQVRNQGIIALSYRDWEEIVKTFEISEPVITPSQRQQKPSA [NSMCE4A]	49.9	50.2	0.00196	0.182	-2.46	-1.49
MSGELPPNINIKEPRWDQSTFIGRANHFFTVTDPRNILLTNEQLESARKIVHDYRQGIVPPGLTENELWRAKYIYDSAFHPDTGEKMILIGRMSAQVPMNMTITGCMMTFYRTTPAVLFWQWINQSFNAVVNYTNRSGDAPLTVNELGTAYVSATTGAVATALGLNALTKHVSPLIGRFVPFAAVAAANCINIPLMRQRELKVGIPVTDENGNRLGESANAAKQAITQVVVSRILMAAPGMAIPPFIMNTLEKKAFLKRFPWMSAPIQVGLVGFCLVFATPLCCALFPQKSSMSVTSLEAELQAKIQESHPELRRVYFNKGL [SFXN1]	54.4	54.8	-0.0506	0.371	-0.303	-0.959
MSGEPGQTSVAPPPEEVEPGSGVRIVVEYCEPCGFEATYLELASAVKEQYPGIEIESRLGGTGAFEIEINGQLVFSKLENGGFPYEKDLIEAIRRASNGETLEKITNSRPPCVIL [MIEN1]	50.8	51.1	-0.0195	0.353	-1.21	0.00566
MSGFDDPGIFYSDSFGGDAQADEGQARKSQLQRRFKEFLRQYRVGTDRTGFTFKYRDELKRHYNLGEYWIEVEMEDLASFDEDLADYLYKQPAEHLQLLEEAAKEVADEVTRPRPSGEEVLQDIQVMLKSDASPSSIRSLKSDMMSHLVKIPGIIIAASAVRAKATRISIQCRSCRNTLTNIAMRPGLEGYALPRKCNTDQAGRPKCPLDPYFIMPDKCKCVDFQTLKLQELPDAVPHGEMPRHMQLYCDRYLCDKVVPGNRVTIMGIYSIKKFGLTTSRGRDRVGVGIRSSYIRVLGIQVDTDGSGRSFAGAVSPQEEEEFRRLAALPNVYEVISKSIAPSIFGGTDMKKAIACLLFGGSRKRLPDGLTRRGDINLLMLGDPGTAKSQLLKFVEKCSPIGVYTSGKGSSAAGLTASVMRDPSSRNFIMEGGAMVLADGGVVCIDEFDKMREDDRVAIHEAMEQQTISIAKAGITTTLNSRCSVLAAANSVFGRWDETKGEDNIDFMPTILSRFDMIFIVKDEHNEERDVMLAKHVITLHVSALTQTQAVEGEIDLAKLKKFIAYCRVKCGPRLSAEAAEKLKNRYIIMRSGARQHERDSDRRSSIPITVRQLEAIVRIAEALSKMKLQPFATEADVEEALRLFQVSTLDAALSGTLSGVEGFTSQEDQEMLSRIEKQLKRRFAIGSQVSEHSIIKDFTKQKYPEHAIHKVLQLMLRRGEIQHRMQRKVLYRLK [MCM5]	51.9	51.4	-0.0997	-0.322	1.16	0.714
MSGFSPELIDYLEGKISFEEFERRREERKTREKKSLQEKGKLSAEENPDDSEVPSSSGINSTKSQDKDVNEGETSDGVRKSVHKVFASMLGENEDDEEEEEEEEEEEEEEETPEQPTAGDVFVLEMVLNRETKKMMKEKRPRSKLPRALRGLMGEANIRFARGEREEAILMCMEIIRQAPLAYEPFSTLAMIYEDQGDMEKSLQFELIAAHLNPSDTEEWVRLAEMSLEQDNIKQAIFCYTKALKYEPTNVRYLWERSSLYEQMGDHKMAMDGYRRILNLLSPSDGERFMQLARDMAKSYYEANDVTSAINIIDEAFSKHQGLVSMEDVNIAAELYISNKQYDKALEIITDFSGIVLEKKTSEEGTSEENKAPENVTCTIPDGVPIDITVKLMVCLVHLNILEPLNPLLTTLVEQNPEDMGDLYLDVAEAFLDVGEYNSALPLLSALVCSERYNLAVVWLRHAECLKALGYMERAAESYGKVVDLAPLHLDARISLSTLQQQLGQPEKALEALEPMYDPDTLAQDANAAQQELKLLLHRSTLLFSQGKMYGYVDTLLTMLAMLLKVAMNRAQVCLISSSKSGERHLYLIKVSRDKISDSNDQESANCDAKAIFAVLTSVLTKDDWWNLLLKAIYSLCDLSRFQEAELLVDSSLEYYSFYDDRQKRKELEYFGLSAAILDKNFRKAYNYIRIMVMENVNKPQLWNIFNQVTMHSQDVRHHRFCLRLMLKNPENHALCVLNGHNAFVSGSFKHALGQYVQAFRTHPDEPLYSFCIGLTFIHMASQKYVLRRHALIVQGFSFLNRYLSLRGPCQESFYNLGRGLHQLGLIHLAIHYYQKALELPPLVVEGIELDQLDLRRDIAYNLSLIYQSSGNTGMAQTLLYTYCSI [GTF3C3]	45.9	49.1	-0.0144	-0.231	2.95	5.2
MSGLSGPPARRGPFPLALLLLFLLGPRLVLAISFHLPINSRKCLREEIHKDLLVTGAYEISDQSGGAGGLRSHLKITDSAGHILYSKEDATKGKFAFTTEDYDMFEVCFESKGTGRIPDQLVILDMKHGVEAKNYEEIAKVEKLKPLEVELRRLEDLSESIVNDFAYMKKREEEMRDTNESTNTRVLYFSIFSMFCLIGLATWQVFYLRRFFKAKKLIE [TMED10]	55.3	55.8	-0.0383	0.076	0.651	-0.174
MSGPRPVVLSGPSGAGKSTLLKRLLQEHSGIFGFSVSHTTRNPRPGEENGKDYYFVTREVMQRDIAAGDFIEHAEFSGNLYGTSKVAVQAVQAMNRICVLDVDLQGVRNIKATDLRPIYISVQPPSLHVLEQRLRQRNTETEESLVKRLAAAQADMESSKEPGLFDVVIINDSLDQAYAELKEALSEEIKKAQRTGA [GUK1]	48.9	50.2	0.047	0.604	-0.1	-0.804
